# According to the nanobody polyreactivity screen of Harvey et al. (2022):
# Assay: yeast display, Sf9 membrane polyspecificity reagent, FACS + sequencing; frameworks hold sequencing errors
# Outline: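 A nanobody's polyreactivity label depends on the gate it was sorted from. Yeast display cells were stained with 10% biotinylated, detergent-solubilized Sf9 membrane reagent for 1 hour at 4 °C, enriched on streptavidin microbeads and sorted by FACS. The low and high (top ~1%) gates were set on anti-HA fluorescence for expression and streptavidin fluorescence for reagent binding.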
row,Sequence,polyreactivity (PSR sort gate)
1,QVQLVESGGGLVQAGGSLRLSCAASGRIFKLYAMGWYRQAPGKERELVAAISKSGGNTYADSVKGRFTISRDNAKNPVYLQMNSLKPEDTAVYYCAATVQSTSDPFDYLGQGTQVTVSS,low polyreactivity
2,QVQLVESGGGLVQAGGSLRLSCAASGPTFGVNAMGWYRQAPGKERELVAVISSTGSTNYSDSVKGRFTISRDNAKYTVYLQMNSLKPEDTAVYYCAVGPNSVGNRSYGFDYWGQGTQVTVSS,low polyreactivity
3,QVKLVESGGGLVQAGGSLRLSCADSGSIFVPNTRGWYRQAPGKERELVAAITAGGSTDYADSVKGRFTISRDNAKNTVYLQMNSLKPEDTAVYYCNADVYSWVSGKEGDYWGQGTQVTVTS,low polyreactivity
4,QVQLVESGGGLVQAGGSLRLSCAASGRIFDSNALGWYRQAPGKERELVAAISYDGGSTYYADSVKGRFTISRDNAKNTVYLQMNSLKPEDTAVYYCAADDGWYYYYGYDYWGQGTQVTVSS,low polyreactivity
5,QVQLVESGGVLVQAGGSLRLSCAASGSTFGLNAMGWYRQAPGKERELVAAITRSDITNYADSVKGRFTISRDNAKNTVYLQMNSLKPEDTAVYYCAARGLWPYDYWGQGTQVTVSS,low polyreactivity
6,QVQLVESGGGLVQAGGSLRLSCAASGITFYRYAMGWSRQAPGKERELVAAITWSGGSTYYADSVKGRFTISRDNAKNTVYLQMNSLKPEDTAVYYCAAVLYSPDFFGNYDYWGQGTQVTVSS,low polyreactivity
7,QGQLVESGGGLVQAGGSLRLTCAASGLTFRRYTMGSYRQAPGNERELVAPISGSGGSTYYADSVKGRFTISRDSAKNTVYFQMNSLKPEDTAVSYCNAPYLHYVIVFTDYSQRYDYWGQGTQVTVSS,high polyreactivity
8,QVQLVESGGGLVQAGGSLRLSCAASGFIFRWYAMGWYRQAPGKERELVAAISRSGDSTYYADSVKGRFTISRDNAKNTVYLQKNSLKPEDTAVYYCAADDRYYTYGYDYWGQGTQVTVSS,low polyreactivity
9,QVQLVESGGGLVQAGGSLRLSCAASGRIFVPYAMGWYRQAPGKVREFVAAISYRGGSTYYADSVKGRFTISRDNAKNTVYLQMNSLKPEDTAVYYCAKVIPYRGKVTLDYWGQGTQVTVSS,low polyreactivity
10,QVQLVESGGGLVQAGGSLRLSCAASGNTFDIYTMGWYRPAPGKERELVATISSGGRTNYADSVKGRFTISRDNAKNTVYLQMNSLNPEDTAVYYCAKNLRYVWWYDHFRPYGYWGQGTQVTVSS,high polyreactivity
11,QVQLVESGGGLVHAGGILRLSCAASGRIFDYNVMGWYRQAPGKERELVADINGSGGGTNYADSVKGRFTISRDNAKNTVYLQMNSLKPEDTAVYYCAAEWYSYGARSSYGGSRNDYWGHGTQVTVSS,low polyreactivity
12,QVQLVESGAGLVQAGGSLRLSCAASGYIFRQYAMGRYRQAPGTEREFVAAISQTGGSTYYADSVKRRFTLSRDNAKNTVYFQMNSLKPVDTAVYYCAARYRGQRYRKLDYWGQGTQVTVSS,high polyreactivity
13,QVQLVESGGCLVQAGGSLRLICAASGIILTQNAMGWYRQAPGKERELVAAITESGARTYYADSVKGRFTISRDNAKNTVYLQMNSLKPEDTAVYYCAAHTRTSGHNYWGQGTQVTVSS,low polyreactivity
14,QVQLVESGGGLVQAGGILRLSCAASGNIFESYGMGWYRQAPGKERELVAANSYSGGTTYYADSVKGRFTFSRDNEKNTVYLQMNSLKPEDTAVYYCAARLHHFFTYDYWGQGTQVTVSS,low polyreactivity
15,QVQLVESGGGLVQAGGSLRLSCAASGSIFDRYGMGWYRQAPGKERELVADITSDGSTNYADSVKGRFTISRDNAKNTVYLQMNSLKPEDTAVYYCAVSYTAYSVGYDYWGQGTQVTVSS,low polyreactivity
16,QVQLVESGGALVQAGGSLRLSCAASGRIFASNGMGWYRQAPGKEREFVAAINRSGGSTYYADSVKGRFTISRDNAKNTVYLQMNSLKPEDTAVYYCNKDYLYSYLWGWKVYSYDYWGQGTQVTVSS,low polyreactivity
17,QVQHVESGGRLVQAGGSLRLSCAPSGFIFSKYAMGWYRQAPGKERELVAAITRSGGRTYYADSVKGRFTISRDNAKNTVYLQMNSLKPEDTAVYYCAASWLYFGRDYWGQGTQVTVSS,high polyreactivity
18,QVQLVESGGGLVQAGGSLRFSCAASGSIFSSYAMGWYRQAPGKERELVAAISSSGDSTYADSVKGRFTISRDNAKNTVYLQMNSLKPEDTAVYYCAVGGAGSDDYWGQGTQVTVSS,low polyreactivity
19,QVQLVESGGGLVQAGGSLRLSCAASGFIFTIYAMGWYRQAPGKERELVAAITWNGGRTYYADSVKGRFTISRDNAKNTVYLQMNSLKPEDTAVYYCAARYGRAYDYWGQGTQVTVSS,high polyreactivity
20,QVQLVEAGGGLVQAGGSLRLSCAASGRIFVPYAMGWYRQAPGKEWELVAGISWSGGSTYYADSVKGRFTISRDNAKNTVYLQMNNLKPEDTPVYYCAAAKRRRPFDYWGQGTQVTVSS,high polyreactivity
21,QVQLVESGGGIVQAGGSLLLSCAASGRIFEKYALGWYRQAPGKDRELVAAISYSGGSTYYADSVKGSFTSSRDKAKNTVYFQMNSLKPEDTAVYYCARYSRTQAYDYWGQGTQVTVSS,high polyreactivity
22,QVQLVESGGGLVQAGGSLRLSCAASGRIFAYYTMGWYRQAPGKERELVATISGSGASTYYADSVKGRFTISRDNAKNTDYLQMNSLKPEDTAVYYCAATRFYATIYDYWGQGTQVTVSS,high polyreactivity

row,Sequence,polyreactivity (PSR sort gate)
1,QVQLVESGGGVVQAGGSLRISCAASGRTFGVYAMGWYREAPGKERELVAAINRSGTRTYYADSVKGRFSISRDNPKNTVYLPMNSLKPEDTAVYYCAASWYPGSRNYDYWGQGTQVSVSS,high polyreactivity
2,QVQLVESGGGLVQAGGSLRLSCAASGLTLYINAMGWYRQAPGKERELVAAIRTVGRTRYADSVKGRFTISRDNAKNTVYLQMNSLKPEDTAVYYCNARRYLRGYGYGYWGQGTQVTVSS,high polyreactivity
3,QVQLVESGGGLVQAGGSLRLSCAASGYISFGYAMGWYRQAPGKEREFVAAISVGGGTTYYADSVKGRFTISRDNAKNTVYLQMNSLKPEDTAVYYCAARSYSYAPRRGYWGQGTQVTVSS,high polyreactivity
4,QVQLVESGGGLVQAGGSLRLSCAASGSTFDDYAMVWYRQAPGKDREFVAAISFSGDSTYYADSVKGRFTISRDNAKNTVYLQMNRLKPEDTAVYYCAAEVPAEENGYAYDYWGQGTQVTVSS,low polyreactivity
5,QVQLVESGGGLVQAGGSLRLSCAASGRIFVLNAMGWYRQAPGKERELVAAISGSGSRTYYADSVKGRFTISRDNAKNTVYLQMNSLKPEDTAVYYCNTVSRRSEHTYDYWGQGTQVTVSS,high polyreactivity
6,QVQLVESGGGLVQAGGSLRLSCAASGFTFSDNAMGWYRQAPGKERELVAASSRSGGRTYYADSVKGRFTISRDNAKNTVYLQMNSLKPEDTAVYYCNARRLSTGFDRYDYWGQGTQVTVSS,high polyreactivity
7,QVQLVESGGGLVQAGGSLRLSCAASGSTFYRYAMGWYRQAPGKERELVAAISKRGGSTYYADSVKGRFTISRDNAKNTVYLQMNSLKPEDTAVYYCNAVGYKGTTYDYWGQGTQVTVSS,high polyreactivity
8,QVQLVESGAGLVQAGGILRLSCAASGLTFSRYTMGWSRQAPGKERELVAAITSSGGSTYYADSVKGRFTISRDNAKNTVSLEMNSLKPEDTAVNYCAARYPGTRGDGYWGLGTQVTVSS,high polyreactivity
9,QVQLVESGGGLVQAGGSLRLSCAASGSIFQYYAMGWYRQAPGKERELVAAISSGDTTNYADSVKGRFTISRDNAKNTVYLQMNSLKPEDTAVYYCNAEGGWYDWDDYWGQGTQVTVSS,low polyreactivity
10,QVHLVESGGGLVQGGGSLRLSCAASGGTIYYYAMGWYRQAPGKERELDAANRCSGGSTYYADSVKGRFTISRDIAKNTVSLQMNSLKPEDTAVYYCPSRGGNPKGYGYLAFNYWGQGTQVTVSS,high polyreactivity
11,QVPLQESGGGLVQAGGSLRLSCAASGTISYAPHMGWYRQAPGKERELVAGITIGGTTYYADSVKGRFTISRDNAKNTVYLQMNSLSPGDTAVYYCAAHSEQYTPFYYWGQGTQVTVSS,low polyreactivity
12,QVQLVESGGGLVQAGGSLRLSCAASGITFPSYAMGWYRQAPGKEWELVATISRGDSTYYADSVKGRFTISRDNAKNTVYLQMNSLKPEDTAVYYCNARWWFQLYYYSTFAGYNYWGQGTQVTVSS,low polyreactivity
13,QVQLVESGGGLVQAGGSLRLSCGASGRTFFWYDMGWYRQAPGKERELVAAISSSTRTKYADSVKGRFTISRDNAKNTVYLQMNSLKPEDSAVSYCAATSDYYHYWYYSSVRRFDYWGQGTQVTVSS,high polyreactivity
14,QVQLVESGGGLVQAGGILRLSCAASGRIFPKYAMGWYRQAPGKERELVAAIRWSGGNTYYADSVKGRFTISRDNAKNTVYLQMNSLKPEDTAVYYCAATPYVSKYYYFGHDYWGQGTQVTVSS,high polyreactivity
15,QVQLVDSGAGLVQAGGSLRLSCDASGSTFRGYAMGWYRQSPWKERELVAAITYISDSTYYADSVKGRFTISRDNAKNTVFLQMISLNPEDTAVYYCNAYYDGDWRYTSQVTGDLWGQGTQVTVSS,low polyreactivity
16,QVQLVESGGGLVQAGGSLRLSCAASGTIFYVYAMGWYRQAPGKERELVDAINTSGGSTFYADSVKGRFTISRDNAKNTVYLHMKSLKPEDTAVYYCAAERYRYRSTDTMGYWGQGSQVTVSS,low polyreactivity
17,QVQLVESVGALVQAGGSLRLSCAASGSIFIPYAMGWYRQAPGKEWEFVATITFGAASTYYADSVKGRFTISRDNAKNTVYLQMNSLKPEDTAVYYCNAEGYVYPYYREGDYWGQGTQVTVSS,low polyreactivity
18,QVQLVESGGGLVKAGGSLRLSCAASGFIFVPYAMGWYRQAPGKERELVAAITWSSGGNTYYADSVKGRFTISRDNAKNTVYLQMNSLKPEDTAVYYCAAEWYEAGYWYDYWGQGTQVTVSS,high polyreactivity
19,QVQLVESGGGLVQAGGSLRLSCAASRFIFYSNAMGWYRTAPGKERELVASITGDGGTTYYADSVKGRFTISRDNAKNNVYLQMNSLKPEDTAVYYCAKDYIYRGYYTDFRYEDYDYWGQGTQVTVSS,low polyreactivity
20,QVQLVESGGGLVQAGGSLRLSCAASGSTFYRNAMGWYRQAPGKERELVAAISRDGSTYYADSVKGRFTISRDNAKNTVYLQMNSLKPEDTAVYSCAKAGVTNGVVVDSVYAYDYWGQGTQVTVSS,low polyreactivity
21,QVQLVESGGGLVQAGGSLRLSCAASGFIFGGYAMGWYIQGHGKERELVAAISSSGGSTYYADSVKGRFTISRDNAKNSVYLQMNSLKPEDTAVYYCAKVGWSRRYYYWGQGTKVTVSS,high polyreactivity
